System: α4β7 integrin binding to MAdCAM-1
Assay: Competitive inhibition of binding of α4β7 on RPMI8866 cells to MAdCAM-1 by peptides, viruses, IMCs and controls
Assay type: cell-based, human
Conditions: for % Inhibition ± SD of α4β7 integrin binding to MAdCAM-1: average of 3–7 experiments in triplicate
Method: 96-well plates were coated with MAdCAM-1 as described above. RPMI8866 cells (2 X 10^6/ ml) were incubated with cyclic V2 or V3 MN, TH023, or acute subtype C (C-6980v0c22) peptides or with scrambled flanking region (SFL) or the mid region (SMR) TH023 V2 or with a completely scrambled (SCR) TH023 peptide (10 μg/ml) for 45 minutes at 37°C before being added in triplicate to the MAdCAM-1 coated plates for 1 hour at 37°C. In concurrent experiments, RMI8866 cells were incubated with purified primary HIV-1 (0.75 ng to 6 ng/well p24) subtype B (SF162, US-1, JRFL), subtype CRF01_AE viruses (92TH023), IMCs (0.75 ng to 1000 ng/well p24 in each case) containing acute or chronic envelopes (Acute CRF01_AE (703357) [GenBank:JN944658], C (C-6980v0c22) [GenBank:HM215344], A(851891); Chronic CRF01_AE (CM235.2) [AF259954.1], C (ET02220LucR) [U46016]) or with pSG3Δenv. pSG3Δenv contained a four-nucleotide insertion mutation (CTAG) in Env, leading to a translation stop codon after amino acid residue 142. The pSG3Δenv clone is routinely used for generating Env pseudotyped infectious virions.
Viruses were tested in triplicate in two independent experiments. In additional experiments, mannose, HIV-1 p24, and ovalbumin (0.2–10 μg/ml) were used in the competition assay as nonspecific protein controls (data in Table 2; 3–7 experiments performed in triplicate), whereas, an anti-RSV mAb, Synagis® was used as a nonspecific antibody control. Synagis® was incubated for 45 minutes with either MAdCAM-1 or with RPMI8866 cells and then placed in the assay system. The remainder of the assay was similar to that described above. Significance was determined by paired Student’s t test.

B1: Ovalbumin: nonspecific protein control (protein)
chain: MGSIGAASMEFCFDVFKELKVHHANENIFYCPIAIMSALAMVYLGAKDSTRTQINKVVRFDKLPGFGDSIEAQCGTSVNVHSSLRDILNQITKPNDVYSFSLASRLYAEERYPILPEYLQCVKELYRGGLEPINFQTAADQARELINSWVESQTNGIIRNVLQPSSVDSQTAMVLVNAIVFKGLWEKAFKDEDTQAMPFRVTEQESKPVQMMYQIGLFRVASMASEKMKILELPFASGTMSMLVLLPDEVSGLEQLESIINFEKLTEWTSSNVMEERKIKVYLPRMKMEEKYNLTSVLMAMGITDVFSSSANLSGISSAESLKISQAVHAAHAEINEAGREVVGSAEAGVDAASVSEEFRADHPFLFCIKHIATNAVLFFGRCVSP
0.2 μg/ml
  % Inhibition ± SD of α4β7 integrin binding to MAdCAM-1: 7.2 ± 12.5%
1.0 μg/ml
  % Inhibition ± SD of α4β7 integrin binding to MAdCAM-1: 2.0 ± 3.5%
5 μg/ml
  % Inhibition ± SD of α4β7 integrin binding to MAdCAM-1: 13.6 ± 11.8%
10 μg/ml, average of triplicate determinations from a single experiment
  % Inhibition of α4β7 integrin binding to MAdCAM-1: 18%
0.2–10 μg/ml
  Inhibition of α4β7 integrin binding to MAdCAM-1 by nonspecific controls (in words): no significant inhibition
